According to a protein production outcome set (Wang et al. 2014):

Experiment: label from the status in PepcDB records

Sequence | protein production
MSLLEKDINLKIFKGNLIFTKTSDKFTIMKDSYIVVIDGKIASVSSNLPDKYKGNPIIDFRNNIIIPGMNDLHAHASQYKNLGIGMDKELLPWLNNYTFPEEAKFLNVDYAKKTYGRLIKDLIKNGTTRVALFATLHKDSTIELFNMLIKSGIGAYVGKVNMDYNCPDYLTENYITSLNDTEEIILKYKDKSNIVKPIITPRFVPSCSNELMDGLGKLSYKYRLPVQSHLSENLDEIAVVKSLHKKSNFYGEVYDKFGLFGNTPTLMAHCIHSSKEEINLIKRNNVTIVHCPTSNFNLGSGMMPVRKYLNLGINVVLGSDISAGHTCSLFKVIAYAIQNSKIKWQESGKKDMFLSTSEAFYMATKKGGSFFGKVGSFEEGYDFDALVINDSNLYPEDYDLTERLERFIYLGDDRNIMKRYVCGNEIFGPKFEGHHHHHH | not failed
MYEEWKIVKREAPILGNDQLIENIWKMKREDSPYDIISLHKVNLIGGGNDAVLILPGTWSSGEQLVTISWNGVHYTIPDYRKSIVLYLARNGFNVYTIDYRTHYVPPFLKDRQLSFTANWGWSTWISDIKEVVSFIKRDSGQERIYLAGESFGGIAALNYSSLYWKNDIKGLILLDGGPTKHGIRPKFYTPEVNSIEEMEAKGIYVIPSRGGPNNPIWSYALANPDMPSPDPKYKSISDFLMDSLYVTGSANPYDYPYSKKEDMFPILASFDPYWPYRLSLERDLKFDYEGILVPTIAFVSERFGIQIFDSKILPSNSEIILLKGYGHLDVYTGENSEKDVNSVVLKWLSQQR | not failed
WSLQPLADMSAAEFRDWQVLLENRTGVVLNEQRRTFLQASLTARMRELGIGDYHSYYRQVTDGPRGAVEWATLLDRLTVQETRFFRHPPSFELLERYLGERLRREGMPRPWALWSVGCSSGEEPYSLAMCAAQVLRGQEREDFFGVTGTDISLHALQRARQANYPARKLEQLEAGLVERYCERQADGSFSVKTILTERVCCARLNVLDLAKAPWSGMDVIFCQNLLIYFRRWRRREILNRLAERLAPGGLLVIGVGEVVDWSHPELEPVADERVL | failed
MSNHSRDEPSTAPKTDQWYDLVLGSSAKDDSSHKFCTLRYEFKPASIDKNRSGSMHKKKDNRVSVEFQNNQPGKPKVTFEGSSEDYKESDAVLFFDGEKFRLERLHRAVTQLRHVRTPGESAAASQSAVPVEHRLSPVGRAAKSPQVNRSLLPDVPVEVERIEIGKPENSAEPANTGNVPATSPVEDKNDDGDEHQEIDLVEIFGSFTPENDNAEKENADGGEYVESLNKQLSMTEEEIADVDDDSGGEGEKGLNAAEALRAQVNAEVQKSQTSSSSSSSGSSSGSDSDGRSKSVSSGSGSGGQSSSGSSSRGSGGSDDEDEVNSV | failed
MVTGIVFHEEYLKHEQSPTHPERRERLAYTMDQLREEGIFESERIVLLEPFKASLEDVLEVHTEEYVRFLEMESKKGGIIDFDTNIPVGVFDRALLAAGGAIRAAQAVLNKECENAFAMIRPPGHHAKPYIGAGFCYLNNMAIMVKWLLKQGFERIAILDWDAHHGDGTQEIFYNDDRVLFISTHQMPLYPGTGYPEECGTGKGEGYTVNIPLPPGTGDEGYMMVIDEIIEPVVNEFKPQFIAISAGQDNHFTDPITSLALTARGYAEMMRRAVAMAEKHCDGRLVAVLEGGYSVEGALPYTNLGIIAAMAGFDLSAIREPENYLPELLWRKRDSALVKLKHNIEDVKRVHSKYWKCFK | failed
EMVLLPAPQIPLIMKIMKNHTPTWLPGVPTLYEKIVAEATAKGVEIKGIRNSFSGASTLPVRTVEDWENLTGGLLVEGYGLTETSPVLCGNPMNGNRRPGYIGVPFPDTEIRIANPDNLDETMPDGEAGEVLARGPQIFQGYLNKPEATAATFHGDWFRTGDMGVMEEDGFIRLVSRIKEIIITGGFNVYPAEVEEALIAHPDVDDAAVVGRPRKDGSEDVVACIVLKDGAALDPEGLKTHCRKLLTRYKVPRTFYHFEALNKDQLGKVRRREVQQTLLERLGEK | failed
MTTKLDQLTSWLKERKITEVECLISDLTGIARGKISPTNKFIAEKGMRLPESVLLQTVTGDYVEDDIYYDLLDPADIDMVCRPDENAVFLVPWAIEPTAMVIHDTFDKLGNPIELSPRNILKRVLKMYADKGWRPIVAPEMEFYLTKRSDDPDYPLQAPVGRSGRQETGRQSFSIDAANEFDPLFEDMYDWCEAQGLDLDTLIHEEGTAQMEINFRHGDALDLADQILVFKRTMREAALKHNVAATFMAKPMTGEPGSAMHLHQSIVDVKTGKNIFSNADGTMSELFLHHIGGLQKFIPEVLPLFAPNVNSFRRFLPDTSAPVNVEWGEENRTVGLRVPDSSPENRRVENRLAGADANPYLALAASLLCGYIGMVEGIKPSAQVKGRGYERRNLRLPLTIEAALERMENCKPLEQYLGSKFISGYVAVKRAEHENFKRVISSWEREFLLLS | failed
MAFTKIIFKNPNTGAIKEAPVGFSWTVFFFGFIPALFRADWKWAAIMFLLAMFTFGLSNLVFMFIYNKLYVRDLIGAGFKAQSIASGDLNFASSRIGMEIPRLEAA | failed
MAVKIQTPAGTIEITNDVIATVVGGAATDIYGIVGMASKNQIKDNLNDILRRENYSRGVVVRQEDNGIAVDVYTIVSYGTKISEVSRNVQEKVKYNLETLLGVTANSVNVFVQGVRVLPDLEHHHHHH | not failed
MVYLLPFFTVMIWGGNSIVNKMAASTIEPSAMSFYRWFVAMVLLTPFCLPAVIKQRHVIRPYLTKLAFLALLGMVLNQSLGYYAGLTTTASNMALITSLVPLISVFLSVPLLGKSVSMLSIVGGVISLGGLAFMLGHGDVTYFLHQDMTQGDSLMLLAALVYAAYCVLLKRWKMPFNSLTLVYMQGFFSVIMLTPLWLSSEQLLPSQEALPLIAYAGIAASIFAPLMWVKAIDLIGADSSAMFMNLMPVVSVALASTLLGEEIHVYHIIGGLMVISGVILSQIKVRKKQDLVVSESLTTTTR | failed
MRRSLRHGFTALLTTWALLLPTVAVAQEPIDNVPEVTADNAETLEDIIDDALTPTTRLEAPNTDLCPYKESPSPARSTSEVVAPGAQTPALVPVPSVPAGGEKLATCGVITPNGFELPEDSDETITASAWMVFDIDSGEIIAAKDPHGRYRPASIIKVLLSLVAIDELNPTTVVTGTMEAANIEGSRVGVGEGGQYTVDQLLHGLLLASGNDAAYLLAQELGGDQATLEKVNALAKELGTQDTFVATYSGLDAPGMSTSAYDMSLIYQHAWQNPVFESIISTDHIDFPGWGDNEGFQVWNDNALFMNDPDGIGGKTGYTDDANHTFVGGLDRGGRRLAAVLLDSTVSDIRPWEQARLLIDASLPITPGSGVGQLGSGSANDVAPATPELPEPTDNLTSGEGGSQNTLLKLVVPIGIIVLLLIAALAWTFRSPKKKN | failed
MTSHTLTQGGRTTATIALLLAMLLWSSSFIAMKIALTGFDPMVMIFGRMAIASVIFIAVWRRNFSGVRYRAGDWKLLGFMTMCEPCLYFVFEAYALEYTSASQAGMIVAMMPLSVAVAARFVLKEHMARSAWAGFCLAIAGVVWLSLGGQVTENAPNPMLGNALEVCAMLTATGYVISAKRLSSTYPPLFITAVQSLAGFVFFLPVLALPGVTLPTSLPLTPTLAVLYLGVCITLGAYGLYNYGVSRLPAGQAASYINLIPVLTLIMGRVVLGDELSPSQYLASLLVLAGVVLSQRRAAA | failed
DCLLPIVAAPMAGGPTTVALAQAVSGVGGFPFLAGGYKSVEALATEIAVLRASGGNFGVNLFVPSPDMVDAEAFRIYAAKLQSEALPYGLRLDPLPVMGDDDGWPDKLALLLNDPVPVVSFTFGLPAVRDIAALRCAGSRVLASVTLPAEAQAAMEAGVDGLVVQGPDAGGHSATYDPGRPFTPLKTVSLVRRVCAVSSLPVIAAGGVDGPVMVRALLQAGAAAVAIGTLLLRTKESGATQVHKDALANPAYTETVITHAFTGRPARTLRNGFVNRYHASAPLGYPAIHHLTRPLRQAAASAGDADVLHLWAGTGYRQAMDGSAVDVIQ | failed
NSDLGGTLQFTSSNPDKAFGARLSQTLGSYDTSRTFMRVDTGEYNGLSAYVSGEKYDADAWKGHNNPQKSDAVNAKINYNFGDNRVSFFHSTSSHDEANLPSLSPSIIQRLGYNWSYYTPDWTRAVNAANGIYTGGVTSAGDATYNASSLRDDELDILNGNFSLTDDLVLDATVYHHHDSGRGNSYYPFVYTSGATTVPSNAIRSTVYGIDRTGFQSSLTYFLGQHEIQAGFWIQSNKNDIARYLFDTTNATPQNHIVKTNGLPLAATVLDQSYNDLTRQFYLRDTYTLLDDRLKLEFGAKNTVTTSTAKGKGGGYASGSLEARDRFLPQVGATYKLNDSDEVFTSYSENMAAFPSGGYSPFFTTQTAVDAQNGFKDLKPETSKTVELGLRRSTKLYSASAAVYNTRFDNRLVAITNCTGIVICQNGVANVGSVTSRGLELSLGLTPNENWRWSNSMSYNHSTYDDDYASGGSTVQVKGKTVVDTPKLMYSSSLDWNWEHWNAGLQGNYISKRYYTYTNDSSVSGYWLANANLGYDCGKLGALKDTTVSLNMVNLFDKRYISTLNTDASAAADPSGNLQILQVGTPRSAFVTLGVKL | failed
MNKVLINDTTLRDGEQAAGVVFTLEEKVAIAKFLDTIGVPELEVGIPAMGEEEMRAICAISNLGLKANLLAWNRAVISDIKASVACGMERVHIAIPVSGIQIAAKFHGQWRVSLQRLKDCISFAVDQGLWVAVGGEDSSRADENFLLDVALYAQEWGASRFRFCDTVGVLDPFTTYGKVKLLVSALTIPVEVHTHNDFGMATANALAGIKAGASSVNTTVIGLGERAGNAALEEVVMAIKRIYGVDMGIDTPRLLELSQLVAAASGANVPPWKAIVGENTFAHESGIHAHGVLQNPDTYEPFAPEEVGWERRLVVGKHSGRHSVSNLLEQHGIFLNPEETQSVLDAVRQQSIKKLEHHHHHH | failed
NMPRLRMLMSAFPKGGDLHHHLAGAIDAETMLQWAGDQNLCIDTIKLSVIPSPCDAAVNKKPAKNLERQDPILWNKLIDVFSMRNYHFDVAAGEHSGHDHFFSSFFHFAAALDNNFGRMIAYSRRDAAANNLLYIETMQNPKVVSTFARSVLQDAKGKNSPEDLWKVVKDRLPAAVAAAKAETTEAEAQSRQILQCDGRQPDPACSVTMRYMVFAVRAMPPEMVFAQLALGFALAHSDPRWVGVNIVAPEDGAVSMQDYDLHMQFFRFLRQLYPDVKITLHAGELALPLVPTAGLRDHIRKAVFVAGADRIGHGIDIGSEMNPVEILHHMAERPVPVEINLSSNDAILNIKGNQHPFALYRQYNVPVVISTDDAGVSRNDLTTEYMRAIEEQHVSYSDLKKLSRDSLEYAFLSGEGLWQKNTGESVKPVCSGIAFTAMPQGKCADFLVKNDKAALQWKLEAAFIRYEEQVREGA | failed
TDSTGIDLHEFLVNTLKKNPRDRMMLLKLEQEILEFINDNNNQFKKFPQMTSYHRMLLHRVAAYFGMDHNVDQTGKAVIINKTSNTRIPEQRFSEHIKDEKNTEFQQRFIL | not failed
MKAEFEEASGLTAGNPVRMKGVNVGSVESIRLNQETQTVRARLRIEEGIRIPEGSHAKVAGFSGIGGVRISILPGPRENPPLPPDATLSAPPEGSVFDRLTDQAPALANKADSVLTSTNTTMSALSTQLQDPDSDLRQALTSAKNITGDLESVTEAEKETLRALLQNLQSVSSDLDTFMGENGDSLDVAVRRLNESLDRLNRGLASLEQTSATLDTVATKLNEGDGTAGRLLNDPSLYLRLDSAAARTNTLLQDFQRDPGRYLNDMTLVKVF | failed
MKKKNNNKLHYLDSKGKLYTSGLRSDTKEKYGEIPSSNKNHNLIEKYNELQSLLSKEEEKYDFVKNELGDLQKQKDLLKWHLCNNIKKLSMKRSDYKFKTETKSKLESKLKSLKDMNKIHKFEHDTLEELVHKMEQELETKMYIKNDIENIFNECINKKDEYLKDITQERISVFKERKKRQNQLQKLLLIMKQENNKNYNINYLKKYESNLMNEINSYKNYKDFETKIAMDLIDDHSLNDLYVT | failed
